Here are results for one substance from EP0871495B1.

For the assay, the target named is MHC class II antigen on the Raji B cell line. Put plainly: cell-based or functional assay.

In turn, “CD4:ζ chimera (CD4 extracellular domain fused to human T cell receptor ζ chain)” yielded a cytolysis (51Cr release) of Raji (MHC class II+) cells by CTL expressing CD4:ζ of 5 % cytolysis.
